{
  "source": "paper PMC8294335",
  "about": "(Molecular Cell, 2021)",
  "proteins": {"B1": {"name": "GFP-HCN4ΔC (rabbit HCN4 carrying an internal deletion from residues 783 to 1064, with N-terminal decahistidine-eGFP tag) (natural protein)", "chain": "MDKLPPSMRKRLYSLPQQVGAKAWIMDEEEDAEEEGAGGRQDPRRRSIRLRPLPSPSPSPSAAAAAAGGAESRGAALGGAADGEGPARGAAKSSTNGDCRRFRGSLASLGSRGGGGGGGSTGGGSHGHLHDSAEERRLIAEGDASPGEDRTPPGLAAEPERPGAPAPPAASPPQVPSSCGEQRPADAAVKVEGGAAAGDQILPEAEARLGQAGFMQRQFGAMLQPGVNKFSLRMFGSQKAVEREQERVKSAGFWIIHPYSDFRFYWDLTMLLLMVGNLIIIPVGITFFKDENTTPWIVFNVVSDTFFLIDLVLNFRTGIVVEDNTDIILDPRRIKMKYLKSWFVVDFVSSIPVDYIFLIVETRIDSEVYKTARALRIVRFTKILSLLRLLRLSRLIRYIHQWEEIFHMTYDLASAVVRIVNLIGMMLLLCHWDGCLQFLVPMLQDFPDDCWVSLNNMVNNSWGKQYSYALFKAMSHMLCIGYGRQAPMGMSDVWLTMLSMIVGATCYAMFIGHATALIQSLDSSRRQYQEKYKQVEQYMSFHKLPPDTRQRIHDYYEHRYQGKMFDEESILGELSEPLREEIINFNCRKLVASMPLFANADPNFVTSMLTKLRFEVFQPGDYIIREGTIGKKMYFIQHGVVSVLTKGNKETKLADGSYFGEICLLTRGRRTASVRADTYCRLYSLSVDNFNEVLEEYPMMRRAFETVALDRLDRIGKKNSILLHKVQHDLSSGVSNYQENAIVQRIVQHDREMAHCARRAQATTPVAPAIWTPLIQAPLQAAQDLKLISASQPALPQDGAQTLRRASPHSSSGESVAALPPFPRAPGRPPGAGPGQHVTLTLPRKASSGSLPPPLSLFGPRAAPAGGPRLTAAPQREPGAKSEPVRSKLPSNL"}},
  "biological_target": "the molecule itself",
  "assay": "cryo-EM structure",
  "data": [
    {"protein": "B1", "values": [
      {"measurement": "stoichiometry N", "value": 4}
    ]}
  ]
}
